Measurements reported in US20150064134A1.

Key:
Assay in all cases: cell-based or functional assay
[1] = target: BRK(h) (human) (UniProt Q13882)
[2] = target: PDGFRα(h) (human) (UniProt P16234)
[3] = target: PKCι(h) (human) (UniProt P41743)
[4] = target: TrkA(h) (human) (UniProt P04629)
[5] = target: T1, BrSK1(h) (human) (UniProt Q8TDC3)
T1 sequence (looked up): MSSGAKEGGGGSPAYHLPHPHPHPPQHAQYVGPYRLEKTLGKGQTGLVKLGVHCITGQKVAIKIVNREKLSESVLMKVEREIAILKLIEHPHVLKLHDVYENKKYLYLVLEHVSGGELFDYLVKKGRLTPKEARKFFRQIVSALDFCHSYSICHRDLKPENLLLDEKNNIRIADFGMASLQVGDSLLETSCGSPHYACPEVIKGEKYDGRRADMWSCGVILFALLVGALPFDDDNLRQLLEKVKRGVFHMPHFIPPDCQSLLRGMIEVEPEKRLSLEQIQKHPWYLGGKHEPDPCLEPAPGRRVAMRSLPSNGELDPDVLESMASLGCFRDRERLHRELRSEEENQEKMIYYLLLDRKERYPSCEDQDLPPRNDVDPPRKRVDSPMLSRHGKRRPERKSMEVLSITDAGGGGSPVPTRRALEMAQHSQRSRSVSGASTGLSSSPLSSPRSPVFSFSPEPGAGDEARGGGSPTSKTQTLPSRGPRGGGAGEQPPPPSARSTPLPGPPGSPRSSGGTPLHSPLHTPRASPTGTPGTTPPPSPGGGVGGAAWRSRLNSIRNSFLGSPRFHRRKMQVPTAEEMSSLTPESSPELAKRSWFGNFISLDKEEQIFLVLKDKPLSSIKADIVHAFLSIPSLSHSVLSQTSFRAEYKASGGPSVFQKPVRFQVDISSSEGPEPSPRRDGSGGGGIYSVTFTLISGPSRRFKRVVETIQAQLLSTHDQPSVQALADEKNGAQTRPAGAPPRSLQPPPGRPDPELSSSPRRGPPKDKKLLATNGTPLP

[6] = target: T2, IKKβ(h) (human) (UniProt O14920)
T2 sequence (looked up): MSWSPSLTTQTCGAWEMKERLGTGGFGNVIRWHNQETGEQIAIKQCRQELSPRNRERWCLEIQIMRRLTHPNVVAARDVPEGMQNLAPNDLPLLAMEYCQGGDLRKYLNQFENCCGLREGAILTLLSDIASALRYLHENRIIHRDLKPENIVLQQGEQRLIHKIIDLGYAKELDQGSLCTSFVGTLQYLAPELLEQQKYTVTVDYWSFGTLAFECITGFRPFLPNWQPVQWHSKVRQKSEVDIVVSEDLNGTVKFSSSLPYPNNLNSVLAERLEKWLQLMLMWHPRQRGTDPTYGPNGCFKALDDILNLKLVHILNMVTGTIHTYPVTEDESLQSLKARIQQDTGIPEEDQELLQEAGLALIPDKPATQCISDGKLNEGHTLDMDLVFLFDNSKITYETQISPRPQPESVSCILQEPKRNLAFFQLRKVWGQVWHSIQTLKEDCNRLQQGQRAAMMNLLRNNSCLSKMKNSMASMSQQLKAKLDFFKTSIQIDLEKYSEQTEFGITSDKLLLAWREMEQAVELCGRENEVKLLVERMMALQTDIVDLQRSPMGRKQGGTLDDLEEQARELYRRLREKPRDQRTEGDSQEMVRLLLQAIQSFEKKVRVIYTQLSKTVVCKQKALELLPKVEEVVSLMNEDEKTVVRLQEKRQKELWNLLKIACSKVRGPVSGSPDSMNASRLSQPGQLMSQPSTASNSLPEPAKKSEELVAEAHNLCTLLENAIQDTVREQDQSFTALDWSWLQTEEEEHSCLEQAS

[7] = target: MST3(h) (human) (UniProt Q9Y6E0)
[8] = target: PKA(h) (human) (UniProt P17612)
[9] = target: T3, SAPK4(h) (human) (UniProt O15264)
T3 sequence (looked up): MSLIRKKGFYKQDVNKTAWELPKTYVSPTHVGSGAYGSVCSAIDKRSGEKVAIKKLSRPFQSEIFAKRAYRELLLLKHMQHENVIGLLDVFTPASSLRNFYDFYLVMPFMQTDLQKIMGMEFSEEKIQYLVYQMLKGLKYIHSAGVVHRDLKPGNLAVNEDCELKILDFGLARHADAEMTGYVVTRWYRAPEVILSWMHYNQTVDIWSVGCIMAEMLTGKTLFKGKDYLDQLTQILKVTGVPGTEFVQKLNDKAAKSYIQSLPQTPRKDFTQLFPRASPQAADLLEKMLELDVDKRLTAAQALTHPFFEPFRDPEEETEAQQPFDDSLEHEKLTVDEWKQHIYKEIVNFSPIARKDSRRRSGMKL

[10] = target: T4, Rse(h) (human) (UniProt Q06418)
T4 sequence (looked up): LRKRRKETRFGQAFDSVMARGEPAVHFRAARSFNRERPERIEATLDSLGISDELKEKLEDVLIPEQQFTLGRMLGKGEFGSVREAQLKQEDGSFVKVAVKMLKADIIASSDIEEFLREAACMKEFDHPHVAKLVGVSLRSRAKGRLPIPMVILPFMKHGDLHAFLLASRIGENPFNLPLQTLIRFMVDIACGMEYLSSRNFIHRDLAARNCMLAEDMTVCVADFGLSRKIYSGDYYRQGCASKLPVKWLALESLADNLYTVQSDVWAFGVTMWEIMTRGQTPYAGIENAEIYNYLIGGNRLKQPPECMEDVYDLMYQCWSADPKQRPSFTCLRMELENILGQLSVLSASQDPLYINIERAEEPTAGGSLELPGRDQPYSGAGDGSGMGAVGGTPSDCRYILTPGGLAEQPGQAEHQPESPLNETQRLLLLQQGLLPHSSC

Chain of PDGFRα(h) (human) (P16234 550-1089 limits assumed): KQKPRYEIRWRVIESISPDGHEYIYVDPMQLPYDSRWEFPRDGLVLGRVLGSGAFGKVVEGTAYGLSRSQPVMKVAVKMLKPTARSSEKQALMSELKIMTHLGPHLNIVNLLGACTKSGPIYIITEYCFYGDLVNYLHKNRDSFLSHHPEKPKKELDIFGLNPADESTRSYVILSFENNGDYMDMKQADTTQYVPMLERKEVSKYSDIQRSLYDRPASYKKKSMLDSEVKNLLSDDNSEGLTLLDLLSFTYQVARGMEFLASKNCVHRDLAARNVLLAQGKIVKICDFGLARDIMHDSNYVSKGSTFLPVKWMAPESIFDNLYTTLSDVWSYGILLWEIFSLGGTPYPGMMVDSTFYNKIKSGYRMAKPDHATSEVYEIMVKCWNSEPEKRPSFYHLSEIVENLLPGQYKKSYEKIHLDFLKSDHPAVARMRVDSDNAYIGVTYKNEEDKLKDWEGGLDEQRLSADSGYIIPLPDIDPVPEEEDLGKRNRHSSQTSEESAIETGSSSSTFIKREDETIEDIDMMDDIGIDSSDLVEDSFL

% activity at 100 µM [1] [%] | % activity at 100 µM [2] [%] | % activity at 100 µM [3] [%] | % activity at 100 µM [4] [%] | % activity at 100 µM [5] [%] | % activity at 100 µM [6] [%] | % activity at 100 µM [7] [%] | % activity at 100 µM [8] [%] | % activity at 100 µM [9] [%] | % activity at 100 µM [10] [%] | Substance
18 | 40 | 46 | 17 | 76 | 84 | 36 | 119 | 91 | 89 | MMI-0400 (peptide)
41 | 40 | 7 | 24 | 72 | 71 | 4 | 118 | 48 | 63 | MMI-0500 (peptide)
35 | 65 | 68 | 25 | 67 | 84 | 45 | 119 | 96 | 88 | MMI-0300 (peptide)
